The results in this text go back to article PMC4027176, “Modulating TRAP-mediated transcription termination by AT during transcription of the leader region of the Bacillus subtilis trp operon” (Nucleic Acids Research, 2014).

B4: His-tagged N20C (Asn20 replaced with Cys) TRAP (natural protein, B. subtilis, UniProt P19466 1-75, looked up)
chain: MNQKHSSDFVVIKAVEDGVCVIGLTRGTDTKFHHSEKLDKGEVIIAQFTEHTSAIKVRGEALIQTAYGEMKSEKK
notes: TRAP of Bacillus subtilis (mtrB), 75 amino acid subunit, with Asn20 replaced by Cys; six histidine residues at the carboxy terminus of each subunit; Cross-linking was done in the presence of 1 mM tryptophan; also called N20C TRAP; N20C TRAP 11mer; source: purified using Ni-agarose; not shown: His6, C-terminal, kept; copies: 11

Series [1] has as its target T1, TRAP (trp RNA binding Attenuation Protein), WT (Bacillus subtilis) (UniProt P19466).
T1 sequence: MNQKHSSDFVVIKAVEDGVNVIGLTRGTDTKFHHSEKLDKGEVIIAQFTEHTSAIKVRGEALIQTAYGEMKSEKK
Put plainly: filter binding. The settings on record: Filter binding: 16 mM Tris pH 8.0, 250 mM KCl, 1 mM tryptophan, 10 ug yeast RNA, 37 C, 20 min. Pull-down: 20 mM Tris-HCl pH 8.0, 6 mM MgCl2, 2 mM DTT, 100 mM ….

In series [2] the target is T2, TRAP-AT = 1:1 complex, (N20C)1(WT)10 TRAP 11mer crosslinked with BMOE to one D7C AT trimer N20C;D7C (Bacillus subtilis) (UniProt P19466+P19466+O31466).
T2 sequence 1: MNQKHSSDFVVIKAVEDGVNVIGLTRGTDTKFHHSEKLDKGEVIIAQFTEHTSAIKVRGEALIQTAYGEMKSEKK
T2 sequence 2: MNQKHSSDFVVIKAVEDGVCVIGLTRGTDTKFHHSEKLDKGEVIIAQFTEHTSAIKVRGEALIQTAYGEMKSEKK
T2 sequence 3: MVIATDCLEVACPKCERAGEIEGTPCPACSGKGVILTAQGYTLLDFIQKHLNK
Put plainly: filter binding. As to conditions: Filter binding: 16 mM Tris pH 8.0, 250 mM KCl, 1 mM tryptophan, 10 ug yeast RNA, 37 C, 20 min. Pull-down: 20 mM Tris-HCl pH 8.0, 6 mM MgCl2, 2 mM DTT, 100 mM ….

Series [3] concerns the target T1, TRAP (trp RNA binding Attenuation Protein), WT (Bacillus subtilis). Put plainly: pull-down of blocked TEC, immunoblot. The settings on record: Filter binding: 16 mM Tris pH 8.0, 250 mM KCl, 1 mM tryptophan, 10 ug yeast RNA, 37 C, 20 min. Pull-down: 20 mM Tris-HCl pH 8.0, 6 mM MgCl2, 2 mM DTT, 100 mM ….
Series [4] concerns the target T3, trp RNA binding Attenuation Protein (TRAP), wild type, 11mer (B. subtilis) (UniProt P19466).
T3 sequence: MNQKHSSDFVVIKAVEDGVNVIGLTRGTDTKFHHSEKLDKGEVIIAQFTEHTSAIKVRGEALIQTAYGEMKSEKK

Series [5] concerns the molecule itself. Put plainly: cross-linking; BMOE (0.04 mM, 8 Å sulfhydryl cross-linker); N20C TRAP 0.02 mM and/or D7C AT 0.08 mM; 1 mM tryptophan; PBS pH 7.2, 0.5 mM EDTA; 37°C 1 h; 15% SDS gel, Coomassie.
The target of series [6] is B4. Put plainly: pull-down; limiting His-tagged N20C TRAP mixed with 50-fold excess WT TRAP, denatured in 5 M guanidine-HCl 1 h at room temperature, renatured by dialysis in 50 mM phosphate pH 8.0; hetero-11mers held on Ni agarose. The settings on record: both partners purified.

Regarding “GAGUUGAGUUGAGUUGAGUUGAGUUGAGUUGAGUUGAGUUGAGUUGAGUUGAGUU [(GAGUU)11 RNA]”, the Kd in series [1] was determined as 0.55 nM; in series [2] it was 3.7 nM.
The molecule “Δ10-11Eco116 nascent trp leader RNA (8 repeats exposed)” displayed a binding signal in series [3] of 100 % TRAP bound.
The same measure, in the same setting: as for “Δ9-11Eco116 nascent trp leader RNA (7 repeats exposed)”, the figure is 100 % TRAP bound; as for “Eco116 nascent trp leader RNA (~11 repeats exposed)”, 100 % TRAP bound.

B1: Anti-TRAP (AT), wild type, trimer (natural protein)
chain: MVIATDDLEVACPKCERAGEIEGTPCPACSGKGVILTAQGYTLLDFIQKHLNK
As to B1, the in vitro transcription attenuation, Eco116 template; percent of transcripts terminated when AT was added after TRAP had bound the nascent transcript (post) in series [4] stood at 80%.

B2: AT containing a Cys substitution at residue 7 (D7C AT) (natural protein, B. subtilis, UniProt O31466 1-53, looked up)
chain: MVIATDCLEVACPKCERAGEIEGTPCPACSGKGVILTAQGYTLLDFIQKHLNK
notes: Anti-TRAP (AT) of Bacillus subtilis with Asp7 replaced by Cys; source: purified as described by Chen and Gollnick (19)
For B2, the binding result in series [5] is reported as “binds”.

B3: trp RNA binding Attenuation Protein (TRAP), wild type, 11mer (natural protein, B. subtilis, UniProt P19466 1-75, looked up)
chain: MNQKHSSDFVVIKAVEDGVNVIGLTRGTDTKFHHSEKLDKGEVIIAQFTEHTSAIKVRGEALIQTAYGEMKSEKK
notes: 11 identical subunits of 75 amino acids in a ring; also called WT TRAP; TRAP 11mer; copies: 11
Consider B3, for which, in series [6], the binding result was “binds”.
Regarding B4, the binding result in series [5] is on record as “binds”.

A word on the Kd: it is the equilibrium constant for the complex coming apart. A high value points to weaker binding.
